Test results published in PMC6511404 (Biochemistry, 2019).

Target: the molecule itself
Assay: SEC

B1: recombinant N-terminal cleavable His-tagged E. coli enolase (enzyme)
chain: MSKIVKIIGREIIDSRGNPTVEAEVHLEGGFVGMAAAPSGASTGSREALELRDGDKSRFLGKGVTKAVAAVNGPIAQALIGKDAKDQAGIDKIMIDLDGTENKSKFGANAILAVSLANAKAAAAAKGMPLYEHIAELNGTPGKYSMPVPMMNIINGGEHADNNVDIQEFMIQPVGAKTVKEAIRMGSEVFHHLAKVLKAKGMNTAVGDEGGYAPNLGSNAEALAVIAEAVKAAGYELGKDITLAMDCAASEFYKDGKYVLAGEGNKAFTSEEFTHFLEELTKQYPIVSIEDGLDESDWDGFAYQTKVLGDKIQLVGDDLFVTNTKILKEGIEKGIANSILIKFNQIGSLTETLAAIKMAKDAGYTAVISHRSGETEDATIADLAVGTAAGQIKTGSMSRSDRVAKYNQLIRIEEALGEKAPYNGRKEIKGQA
For B1, which “stoichiometry N” value is on record?
Its value is 2.
